# Data from patent publication US20200283521A1 (GRANULAR THERAPEUTICS, published 2020).
# Substitutions are numbered along the chain they refer to. Read-outs that look alike come from different tables or passages of the source.
# B1: MH5, human IgG1 (antibody, V domains shown)
# VH: QVQLVQSGAEVKKPGASVKVSCKASGYTFTDYYMNWVRQAPGQGLEWMGRIYPGSGNTYYAQKFQGRVTMTRDTSTSTVYMELSSLRSEDTAVYYCARGVYYYDYWGQGTLVTVSS
# VL: DIQMTQSPSSLSASVGDRVTITCRASQGIRTNLAWFQQKPGKAPKSLIYSASSLQSGVPSRFSGSGSGTDFTLTISSLQPEDFATYYCQQYANYPRTFGGGTKVEIK
# notes: IgG1; also called C-KIT-MH5; C-KIT-MHS
# B2: humanized h37M, human IgG1 (antibody, V domains shown)
# VH: QVQLVQSGAEVKKPGASVKLSCKASGYTFTDYYINWVRQAPGKGLEWIARIYPGSGNTYYNEKFKGRATLTADKSTSTAYMQLSSLRSEDTAVYFCARGVYYFDYWGQGTTVTVSS
# VL: DIVMTQSPSSLSASVGDRVTITCKASQNVRTNVAWYQQKPGKAPKALIYSASYRYSGVPDRFTGSGSGTDFTLTISSLQPEDFADYFCQQYNSYPRTFGGGTKVEIK
# notes: human IgG1; terbium-labelled as the tracer of the HTRF assays; also called C-KIT-h37M; h37M-IgG1
# B3: MH1, human IgG1 (antibody, V domains shown)
# VH: B1 VH
# VL: B1 VL with S50A, A92N, N93S
# notes: IgG1; also called IgG1-MH1
# How the values were obtained:
# [1] = molecular target: T1, cynomolgus monkey C-KIT-Fc (cynomolgus monkey); test: HTRF competition vs Tb-h37M IgG1
# T1 construct: also called cyno C-KIT-Fc
# Description: Reagents were added sequentially into 384-well low-volume black plates (Nunc).
# [2] = molecular target: T1, cynomolgus monkey C-KIT-Fc; test: direct titration ELISA on coated C-KIT-Fc, IgG1 format
# Description: Direct titration ELISA for IgG binding to human and cyno C-KIT-Fc proteins.
# To coat Greiner Bio-One High bind ELISA plates, target proteins were diluted to 1 μg/ml in carbonate buffer and added at 100 μl per well, at 4° C., o/n. Coated plates were washed 3× with PBS pH7.4, blocked with 1% BSA in PBS (380 μl/well) for 1 hr at RT, then washed 3× with PBS-Tween 20 (PBST). C-KIT antibodies (100 μl/well; diluted in PBST) were then added and then incubated 1 hr at RT. Plates were then washed 3× with PBST and goat anti-human kappa chain-HRP added (100 μl/well) at RT, for 1 hr. Plates were then washed 3× with PBST and twice with PBS before the addition of 100 μl TMB per well. Reactions were stopped by adding 100 μl 2M H₂SO₄/well and OD was read on a plate reader at 450 nm.
# [3] = molecular target: T2, hDR3-Fc (human, UniProt Q93038); test: direct ELISA on coated protein, IgG1
# T2 construct: Fc fusion; member of the panel m9
# T2 sequence (looked up): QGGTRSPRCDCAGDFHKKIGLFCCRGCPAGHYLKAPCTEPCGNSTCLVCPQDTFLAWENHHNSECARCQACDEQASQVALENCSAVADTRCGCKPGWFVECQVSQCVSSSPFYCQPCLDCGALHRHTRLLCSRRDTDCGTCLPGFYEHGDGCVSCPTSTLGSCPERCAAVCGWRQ
# [4] = molecular target: T3, hCMET-Fc (The natural ectodomain is cleaved by furin after residue 307 into disulfide-linked alpha and beta chains. It is given here as one continuous stretch.); test: direct ELISA on coated protein, IgG1
# T3 construct: member of the panel m9
# T3 chain: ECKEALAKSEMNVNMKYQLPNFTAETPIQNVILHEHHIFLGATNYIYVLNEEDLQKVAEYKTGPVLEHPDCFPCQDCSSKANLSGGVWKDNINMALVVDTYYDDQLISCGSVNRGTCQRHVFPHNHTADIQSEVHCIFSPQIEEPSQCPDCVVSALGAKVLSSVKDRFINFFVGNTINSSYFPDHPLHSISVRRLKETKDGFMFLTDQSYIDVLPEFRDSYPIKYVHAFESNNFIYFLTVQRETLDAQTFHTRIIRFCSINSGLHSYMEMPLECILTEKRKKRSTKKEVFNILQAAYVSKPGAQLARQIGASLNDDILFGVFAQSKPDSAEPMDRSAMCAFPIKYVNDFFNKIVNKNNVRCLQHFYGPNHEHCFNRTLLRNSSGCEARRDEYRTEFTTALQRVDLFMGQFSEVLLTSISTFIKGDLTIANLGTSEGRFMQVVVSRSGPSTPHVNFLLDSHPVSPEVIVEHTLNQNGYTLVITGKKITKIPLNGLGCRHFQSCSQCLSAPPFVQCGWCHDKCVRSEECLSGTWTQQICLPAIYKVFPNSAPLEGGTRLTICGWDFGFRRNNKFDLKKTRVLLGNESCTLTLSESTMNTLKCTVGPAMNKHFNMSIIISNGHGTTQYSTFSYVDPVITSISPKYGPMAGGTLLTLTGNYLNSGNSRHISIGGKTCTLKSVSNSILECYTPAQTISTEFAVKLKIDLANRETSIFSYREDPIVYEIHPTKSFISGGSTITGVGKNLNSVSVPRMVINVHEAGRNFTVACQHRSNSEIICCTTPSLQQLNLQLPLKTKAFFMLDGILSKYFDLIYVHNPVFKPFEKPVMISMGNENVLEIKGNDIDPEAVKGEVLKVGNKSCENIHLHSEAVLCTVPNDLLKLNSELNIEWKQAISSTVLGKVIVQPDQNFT
# [5] = molecular target: T4, hVCAM-1 (human, UniProt P19320); test: direct ELISA on coated protein, IgG1
# T4 construct: purified recombinant protein; member of the panel m9
# T4 sequence (looked up): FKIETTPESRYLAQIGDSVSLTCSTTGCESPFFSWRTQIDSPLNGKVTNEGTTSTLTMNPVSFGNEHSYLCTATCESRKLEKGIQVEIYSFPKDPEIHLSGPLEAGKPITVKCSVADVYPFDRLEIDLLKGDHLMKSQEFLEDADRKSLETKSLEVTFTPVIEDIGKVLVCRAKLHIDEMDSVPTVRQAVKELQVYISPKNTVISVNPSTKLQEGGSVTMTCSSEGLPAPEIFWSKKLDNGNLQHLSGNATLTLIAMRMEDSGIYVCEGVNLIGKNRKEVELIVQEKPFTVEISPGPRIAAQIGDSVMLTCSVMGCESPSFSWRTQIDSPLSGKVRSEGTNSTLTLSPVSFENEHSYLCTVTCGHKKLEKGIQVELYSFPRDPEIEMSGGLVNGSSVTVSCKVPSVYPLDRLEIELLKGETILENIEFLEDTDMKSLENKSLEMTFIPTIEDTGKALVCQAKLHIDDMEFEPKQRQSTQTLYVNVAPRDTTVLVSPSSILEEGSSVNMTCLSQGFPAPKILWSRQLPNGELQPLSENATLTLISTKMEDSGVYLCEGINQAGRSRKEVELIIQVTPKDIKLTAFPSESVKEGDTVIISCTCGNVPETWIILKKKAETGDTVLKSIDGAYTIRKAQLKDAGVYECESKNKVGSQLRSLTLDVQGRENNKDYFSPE
# [6] = molecular target: T5, h4-1BB-Fc; test: direct ELISA on coated protein, IgG1
# T5 construct: member of the panel m9
# [7] = molecular target: T6, hVCAM-Fc; test: direct ELISA on coated protein, IgG1
# T6 construct: member of the panel m9
# T6 chain: T4 sequence (looked up)
# [8] = molecular target: T7, hBAFFR-Fc (human, UniProt Q96RJ3); test: direct ELISA on coated protein, IgG1
# T7 construct: Fc fusion; member of the panel m9
# [9] = molecular target: T8, hICAM-1-Fc (human, UniProt P05362); test: direct ELISA on coated protein, IgG1
# T8 construct: Fc fusion; member of the panel m9
# [10] = molecular target: T2, hDR3-Fc; test: direct ELISA on coated protein, IgG1; remark: listed apart in the source
# [11] = molecular target: T9, hTWEAK-Fc (human, UniProt O43508); test: direct ELISA on coated protein, IgG1
# T9 construct: Fc fusion; member of the panel m9
# T9 sequence (looked up): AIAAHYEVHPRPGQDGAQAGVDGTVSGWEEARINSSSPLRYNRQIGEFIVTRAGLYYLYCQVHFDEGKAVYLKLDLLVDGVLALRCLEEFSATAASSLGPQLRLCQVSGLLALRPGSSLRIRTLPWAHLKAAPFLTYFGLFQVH
# [12] = molecular target: T4, hVCAM-1; test: direct ELISA on coated protein, IgG1; remark: listed apart in the source
# [13] = molecular target: T5, h4-1BB-Fc; test: direct ELISA on coated protein, IgG1; remark: listed apart in the source
# T5 sequence (chain, as listed by the source limits assumed): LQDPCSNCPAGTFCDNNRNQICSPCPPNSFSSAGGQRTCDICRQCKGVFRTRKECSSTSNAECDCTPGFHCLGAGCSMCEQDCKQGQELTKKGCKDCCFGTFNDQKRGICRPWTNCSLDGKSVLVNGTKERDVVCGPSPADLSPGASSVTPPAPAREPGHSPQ
# T7 sequence (Q96RJ3 7-71 limits assumed): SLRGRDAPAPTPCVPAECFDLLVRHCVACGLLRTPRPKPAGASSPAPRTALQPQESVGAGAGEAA
# T8 sequence (P05362 28-480 limits assumed): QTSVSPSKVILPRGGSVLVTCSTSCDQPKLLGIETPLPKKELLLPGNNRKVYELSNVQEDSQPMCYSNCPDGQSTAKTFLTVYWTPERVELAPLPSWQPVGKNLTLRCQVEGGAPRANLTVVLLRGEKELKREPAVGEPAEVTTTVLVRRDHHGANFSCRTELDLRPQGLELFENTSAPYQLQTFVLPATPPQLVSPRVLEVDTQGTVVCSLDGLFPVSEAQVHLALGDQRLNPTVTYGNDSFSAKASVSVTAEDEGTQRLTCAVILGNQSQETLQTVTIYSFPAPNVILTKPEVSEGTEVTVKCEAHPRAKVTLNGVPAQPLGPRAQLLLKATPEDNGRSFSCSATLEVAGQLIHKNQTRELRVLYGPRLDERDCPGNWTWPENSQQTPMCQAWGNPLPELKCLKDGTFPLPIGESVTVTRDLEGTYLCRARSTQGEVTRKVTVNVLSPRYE
binder,measurement,setting,value
B1,IC50,[1],0.036 mg/L
same,EC50 (read off the curve),[2],~0.1 mg/L
B2,binding result,[3],no binding (tested: 1 µg/ml)
same,binding result,[4],no binding (tested: 1 µg/ml)
same,binding result,[5],no binding (tested: 1 µg/ml)
same,binding result,[6],no binding (tested: 1 µg/ml)
B3,binding result,[7],no binding (tested: 1 µg/ml)
same,binding result,[8],no binding (tested: 1 µg/ml)
same,binding result,[9],no binding (tested: 1 µg/ml)
same,binding result,[10],no binding (tested: 1 µg/ml)
same,binding result,[11],no binding (tested: 1 µg/ml)
same,binding result,[12],no binding (tested: 1 µg/ml)
same,binding result,[13],no binding (tested: 1 µg/ml)
